Experiments:
[1] = biological target: T1, streptavidin (UniProt P22629 37-163, limits assumed); assay: fluorescent binding curve, labeled SA in PBS, 4 h exposure
T1 construct: It was used without a stated label in the sandwich assays; also called SA
Experimental: (§1) The binding function of rcSso7d.SA oligomer-PNIPAM thin films was measured using fluorescently-labeled monomeric streptavidin (mSA2) and fluorescently-labeled streptavidin (SA). Details for the expression, purification, and fluorescent labeling of mSA2 are provided below. Samples were prepared by serial dilution of SA or mSA2 in PBS (pH 7.4), human urine (diluted to 50% v/v in PBS, pH 7.4), or blood serum (obtained as the supernatant by centrifuging whole blood at 1500×g for 10 minutes, then diluted to 50% v/v in PBS, pH 7.4). 0.5 μL drops of solutions containing serially diluted fluorescent mSA2 and fluorescent SA samples in PBS (pH 7.4) were gently applied to the surface of each bioconjugate thin film. […] Fluorescence microscopy images were acquired at 4× magnification using a Cy5 filter set and exposure time of 5000 ms on an Olympus IX-81 inverted fluorescence microscope with an AxioCam HRC CCD camera. Fluorescent intensity was calculated using ImageJ software⁶⁷ by determining the average fluorescent signal in a rectangular area of the fluorescent image free of defects and occupying no less than half of the full sample application area.
(§2) To evaluate how the apparent size-based diffusion properties translated to biosensing capabilities, binding curves were measured using SA and mSA2 solutions in buffer. […]

[2] = biological target: monomeric streptavidin variant mSA2; assay: fluorescent binding curve, labeled mSA2 in PBS, 4 h exposure
Experimental: as §1, §2

[3] = biological target: T1, streptavidin; assay: fluorescent binding curve, labeled SA in PBS, 30 min exposure
Experimental: as §1, §2

[4] = biological target: T1, streptavidin; assay: sandwich assay: SA in 50% urine, biotin-HRP/TMB detection
Experimental: (§3) Each well was submerged in 1 mL of 1% BSA in Milli-Q water, and the 12-well plate was incubated at 37° C. for 30 minutes. The wells were rinsed twice by adding 2 mL of Milli-Q water and gently shaking the well plate at 70 rpm for 5 minutes. 1 mL of streptavidin diluted in PBS, urine, or blood serum (prepared as described in the Fluorescent Assays section) containing 0.1% BSA was then added to each well, and the well plate was shaken at 70 rpm for 4 hours at room temperature. Wells were rinsed twice with 2 mL of Milli-Q water then twice with 2 mL of 0.1% BSA in Milli-Q water by shaking at 70 rpm for 5 minutes. After rinsing, wells were submerged in 1 mL of 200 ng/mL biotin-HRP in Milli-Q water containing 0.1% BSA, and the well plate was shaken at 70 rpm for 1 hour at room temperature. Wells were then rinsed with water and 0.1% BSA as described previously. 1 mL of solution from a Pierce TMB substrate kit (Thermo Fisher Scientific) was added to each well, and the well plate was shaken vigorously at 125 rpm for 15 minutes at room temperature. 1 mL of 2M H2SO4 was added to each well, and the absorbance at 450 nm was read using a Tecan Infinite M200 PRO plate reader.
(§4) The general procedure for this proof-of-concept experiment is diagrammed in FIG. 28. Films were first exposed to SA solutions and rinsed to remove unbound analyte. Taking advantage of the strong interaction between SA and biotin, thin films were then submerged in a solution of biotinylated horseradish peroxidase (biotin-HRP). Bound SA was detected colorimetrically through the HRP-mediated oxidation of 3,3′,5,5′-tetramethylbenzidine (TMB). Attempts to perform this assay using mSA2 as the analyte were unsuccessful, even when run on an rcSso7d.SA monolayer.

[5] = biological target: T1, streptavidin; assay: sandwich assay, SA in 50% blood serum, detection with biotin-HRP and TMB
Experimental: as §3, §4

[6] = biological target: T1, streptavidin; assay: fluorescent binding curve, labeled SA in 50% urine, 4 h; quadratic fit
[7] = biological target: T1, streptavidin; assay: sandwich assay: SA in 50% blood serum, biotin-HRP/TMB detection
Experimental: as §3, §4

[8] = biological target: monomeric streptavidin variant mSA2; assay: fluorescent binding curve, labeled mSA2 in 50% urine, 4 h; quadratic fit
[9] = biological target: monomeric streptavidin variant mSA2; assay: fluorescent binding curves, labeled mSA2 in 50% urine or 50% blood serum, 4 h
[10] = biological target: T1, streptavidin; assay: fluorescent binding curve, labeled SA in PBS, 4 h exposure; quadratic fit
[11] = biological target: monomeric streptavidin variant mSA2; assay: fluorescent binding curve, labeled mSA2 in PBS, 4 h exposure; quadratic fit
Experimental: as §1, with “film. Films were incubated in a sealed chamber saturated with water vapor at room temperature to prevent to prevent drying of the applied fluorescent samples.” for “film.”
(§5) To evaluate how the apparent size-based diffusion properties translated to biosensing capabilities, binding curves were measured using SA and mSA2 solutions in buffer. Binding curves were fit with a quadratic model that is a function of three parameters: the average MFI per binding event a, the total concentration of binding sites [P]T, and the apparent dissociation constant K_{d,app} describing the binding equilibrium between analyte and binding sites within the thin film.

[12] = biological target: T1, streptavidin; assay: fluorescent binding curve, labeled SA in 50% blood serum, 4 h; quadratic fit
[13] = biological target: monomeric streptavidin variant mSA2; assay: fluorescent binding curve, labeled mSA2 in 50% blood serum, 4 h; quadratic fit
[14] = biological target: T1, streptavidin; assay: fluorescent binding assay, labeled SA in 50% urine on thin film, 4 h exposure
[15] = biological target: monomeric streptavidin variant mSA2; assay: fluorescent binding assay, labeled mSA2 in 50% urine on thin film, 4 h exposure
Experimental: as §1, with “film. Films were incubated in a sealed chamber saturated with water vapor at room temperature to prevent to prevent drying of the applied fluorescent samples.” for “film.”
as §5

[16] = biological target: T1, streptavidin; assay: fluorescent binding assay, labeled SA in 50% blood serum on thin film, 4 h exposure
[17] = biological target: T1, streptavidin; assay: apparent Kd (Kd,app); fluorescent binding curve, labeled SA in 50% urine, 4 h; quadratic fit
[18] = biological target: monomeric streptavidin variant mSA2; assay: fluorescent binding assay, labeled mSA2 in 50% blood serum on thin film, 4 h exposure
Experimental: as §1, with “film. Films were incubated in a sealed chamber saturated with water vapor at room temperature to prevent to prevent drying of the applied fluorescent samples.” for “film.”
as §5

[19] = biological target: monomeric streptavidin variant mSA2; assay: apparent Kd (Kd,app); fluorescent binding curve, labeled mSA2 in 50% urine, 4 h; quadratic fit
[20] = biological target: T1, streptavidin; assay: apparent Kd (Kd,app); fluorescent binding curve, labeled SA in PBS, 4 h exposure; quadratic fit
[21] = biological target: T1, streptavidin; assay: apparent Kd (Kd,app); fluorescent binding curve, labeled SA in PBS, 0.5 h exposure; quadratic fit
[22] = biological target: monomeric streptavidin variant mSA2; assay: apparent Kd (Kd,app); fluorescent binding curve, labeled mSA2 in PBS, 4 h exposure; quadratic fit
Experimental: as §1, with “film. Films were incubated in a sealed chamber saturated with water vapor at room temperature to prevent to prevent drying of the applied fluorescent samples.” for “film.”
as §5

[23] = biological target: T1, streptavidin; assay: apparent Kd (Kd,app); fluorescent binding curve, labeled SA in 50% blood serum, 4 h; quadratic fit
[24] = biological target: monomeric streptavidin variant mSA2; assay: apparent Kd (Kd,app); fluorescent binding curve, labeled mSA2 in PBS, 0.5 h exposure; quadratic fit
[25] = biological target: monomeric streptavidin variant mSA2; assay: apparent Kd (Kd,app); fluorescent binding curve, labeled mSA2 in 50% blood serum, 4 h; quadratic fit

T1 sequence (P22629 37-163 limits assumed): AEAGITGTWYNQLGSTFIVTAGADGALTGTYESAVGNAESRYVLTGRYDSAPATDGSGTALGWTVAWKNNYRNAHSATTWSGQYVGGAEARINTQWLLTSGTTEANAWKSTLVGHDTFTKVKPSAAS

B1: 3xSP9.6k thin film (3x rcSso7d.SA-PNIPAM conjugate, PNIPAM Mn 9.6 kDa) (designed binder)
chain: MGSSHHHHHHSSGLVPRGSHMCATVKFTYQGEEKQVDISKIKIVARDGQYIDFKYDEGGGAYGYGWVSEKDAPKELLQMLEKQGGGGSGGGGSMATVKFTYQGEEKQVDISKIKIVARDGQYIDFKYDEGGGAYGYGWVSEKDAPKELLQMLEKQGGGGSGGGGSMATVKFTYQGEEKQVDISKIKIVARDGQYIDFKYDEGGGAYGYGWVSEKDAPKELLQMLEKQGG
modifications: maleimide end-functionalized PNIPAM (Mn 9.6 kDa) on the N-terminal Cys; film lightly crosslinked with glutaraldehyde
- sensitivity relative to rcSso7d.SA monolayer [1]: ~2 fold
- reduction in LOD relative to rcSso7d.SA monolayer [2]: 10 fold
- sensitivity relative to rcSso7d.SA monolayer [3]: > 10 fold
- LOD [4]: 39 nM
- LOD relative to rcSso7d.SA monolayer [5]: 2 fold
- [P]T (total concentration of binding sites) [6]: 0.26 nM
- LOD [7]: 87 nM
- [P]T (total concentration of binding sites) [8]: 17 nM
- LOD relative to rcSso7d.SA monolayer [9]: 2 orders of magnitude lower
- [P]T (total concentration of binding sites) [10]: 0.9 nM
- [P]T (total concentration of binding sites) [11]: 0.7 nM
- [P]T (total concentration of binding sites) [12]: 0.27 nM
- [P]T (total concentration of binding sites) [13]: 9.4 nM
- Limit of Detection [14]: 1300 nM
- Limit of Detection [15]: 9.8 nM
- Limit of Detection [16]: 1700 nM
- Kd [17]: 30 µM
- Limit of Detection [18]: 10.5 nM
- Kd [19]: 26 µM
- Kd [20]: 40 µM
- Kd [21]: 60 µM
- Kd [22]: 3.7 µM
- Kd [23]: 50 µM
- Kd [24]: 11 µM
- Kd [25]: 12.2 µM

From patent US20200057058A1 (MIT, published 2020)
